One data set has as its target T1, IFN-gamma (Homo sapiens) (UniProt P01579).
T1 sequence: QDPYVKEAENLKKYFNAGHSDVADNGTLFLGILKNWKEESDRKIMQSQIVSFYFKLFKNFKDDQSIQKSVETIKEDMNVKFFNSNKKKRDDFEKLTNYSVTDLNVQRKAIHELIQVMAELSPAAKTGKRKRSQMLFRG
The data set is described as follows: filter.

The target in the next data set is T2, IFN-gamma (Mus musculus) (UniProt P01580).
T2 sequence: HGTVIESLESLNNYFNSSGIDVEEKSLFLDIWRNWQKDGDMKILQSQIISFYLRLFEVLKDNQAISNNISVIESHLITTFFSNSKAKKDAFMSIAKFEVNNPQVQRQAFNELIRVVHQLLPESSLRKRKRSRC
The data set is described as follows: filter. The following applies: mouse protein.

The next data set deals with T3, RANTES (Homo sapiens) (UniProt P13501).
T3 sequence: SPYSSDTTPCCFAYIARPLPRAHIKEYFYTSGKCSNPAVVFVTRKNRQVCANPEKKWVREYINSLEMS
The data set is described as follows: filter.

The next data set addresses T4, IL-4 (Homo sapiens) (UniProt P05112).
T4 sequence: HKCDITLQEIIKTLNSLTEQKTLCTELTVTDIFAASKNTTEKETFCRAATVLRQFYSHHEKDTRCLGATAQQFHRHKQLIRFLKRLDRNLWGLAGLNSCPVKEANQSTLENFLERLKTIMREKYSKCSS
In words: filter.

Data set [1] has as its target TNF-alpha (Homo sapiens) (UniProt P01375). In words: filter.
For another data set, the target named is T5, TNF-beta (Homo sapiens) (UniProt P01374).
T5 sequence: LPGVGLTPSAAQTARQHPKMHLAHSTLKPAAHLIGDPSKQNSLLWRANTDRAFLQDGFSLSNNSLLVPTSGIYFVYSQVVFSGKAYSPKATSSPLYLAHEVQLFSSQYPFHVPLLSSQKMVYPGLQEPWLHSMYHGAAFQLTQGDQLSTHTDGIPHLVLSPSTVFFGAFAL
The data set is described as follows: filter. Particulars: specificity control.

The target in another data set is T6, TNF-alpha (Mus musculus) (UniProt P06804).
T6 sequence: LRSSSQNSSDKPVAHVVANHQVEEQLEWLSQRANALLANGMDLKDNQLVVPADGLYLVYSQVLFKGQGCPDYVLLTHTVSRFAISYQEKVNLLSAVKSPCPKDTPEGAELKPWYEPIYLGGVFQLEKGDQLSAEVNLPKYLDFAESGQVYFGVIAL
The data set is described as follows: filter. Particulars: specificity control.

Data set [2] concerns the target TNF-alpha (Homo sapiens) (UniProt P01375). In words: competition. Particulars: random RNA control, U937 cells.
[3] abbreviates: 2'-F all C and U, round 17 pool.
Where [4] appears, read: 2'-F all C, 2'-NH2 all U, random pool.
The mark [5] stands for this setting: 2'-NH2 all C and U, random pool.
The mark [6] stands for this setting: 2'-F all C, 2'-NH2 all U, round 17 pool.

A word on the Kd: it is the equilibrium constant for the complex coming apart. By Ki is commonly meant a measure of affinity in units of concentration, obtained from inhibition or displacement. Low values mean a stronger hold on the target, high ones a looser hold on the target.

Chain of TNF-alpha (Homo sapiens) (P01375 77-233): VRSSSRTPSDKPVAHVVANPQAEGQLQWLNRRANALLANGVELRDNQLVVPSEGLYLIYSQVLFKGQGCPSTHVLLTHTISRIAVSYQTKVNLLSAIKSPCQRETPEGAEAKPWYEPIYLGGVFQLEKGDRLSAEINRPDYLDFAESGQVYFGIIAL

Turning to “GGGAGGACGAUGCGGNNNNNNNNNNNNNNNNNNNNNNNNNNNNNNNNNNNNNNNNCAGACGACUCGCCCGA [IFN-gamma round 17 pool 2'F]”, the Kd with IFN-gamma (Homo sapiens) (setting [3]) came to 0.07 µM; with IFN-gamma (Mus musculus) (2'-F all C and U) it was 0.41 µM.
Sequence “GGGAGGACGATGCGGNNNNNNNNNNNNNNNNNNNNNNNNNNNNNNNNNNNNNNNNCAGACGACTCGCCCGA [RANTES random ssDNA pool 40N7]” gave a Kd with RANTES (Homo sapiens) (starting pool, 150 mM NaCl) of 3 µM.
The sequence “GGGAGGACGAUGCGGNNNNNNNNNNNNNNNNNNNNNNNNNNNNNNNNNNNNNNNNCAGACGACUCGCCCGA [40N7 random pool 2'F]” showed a Kd in the data set with IFN-gamma (Homo sapiens) (2'-F all C and U, random pool) of more than 0.7 µM.
“GGGAGGACGAUGCGGNNNNNNNNNNNNNNNNNNNNNNNNNNNNNNNNNNNNNNNNCAGACGACUCGCCCGA [40N7 random pool 2'F/NH2]” registered a Kd in the data set with IFN-gamma (Homo sapiens) (setting [4]) of more than 0.7 µM.
In the data set with IFN-gamma (Homo sapiens) (setting [5]), “GGGAGGACGAUGCGGNNNNNNNNNNNNNNNNNNNNNNNNNNNNNNNNNNNNNNNNCAGACGACUCGCCCGA [40N7 random pool 2'NH2]” came in with a Kd of more than 0.7 µM.
Regarding “GGGAGACAAGAAUAAACGCUCAANNNNNNNNNNNNNNNNNNNNNNNNNNNNNNNNNNNNNNNNUUCGACAGGAGGCUCACAACAGGC [40N8 random pool 2'NH2]”, the Kd in the data set with IL-4 (Homo sapiens) (setting [5]) was more than 20 µM.
The sequence “GGGAGGACGATGCGGNNNNNNNNNNNNNNNNNNNNNNNNNNNNNNNNNNNNNNNNCAGACGACTCGCCCGA [RANTES round 19 ssDNA pool]” came in with a Kd with RANTES (Homo sapiens) (round 19, 150 mM NaCl, text says 20 nM) of 0.018 µM.
“GGGAGACAAGAAUAAACGCUCAANNNNNNNNNNNNNNNNNNNNNNNNNNNNNNNNNNNNNNNNUUCGACAGGAGGCUCACAACAGGC [40N8 random pool 2'F]” came in with a Kd with IL-4 (Homo sapiens) (2'-F all C and U, random pool) of more than 20 µM.
Sequence “GGGAGACAAGAAUAAACGCUCAANNNNNNNNNNNNNNNNNNNNNNNNNNNNNNNNNNNNNNNNUUCGACAGGAGGCUCACAACAGGC [40N8 random pool 2'F/NH2]” showed a Kd in the data set with IL-4 (Homo sapiens) (setting [4]) of more than 20 µM.
On to “GGGAGACAAGAAUAAACGCUCAANNNNNNNNNNNNNNNNNNNNNNNNNNNNNNNNNNNNNNNNUUCGACAGGAGGCUCACAACAGGC [IL-4 round 17 pool 2'NH2]”, for which the Kd with IL-4 (Homo sapiens) (2'-NH2 all C and U, round 17 pool, high filter background, earlier round about 100 nM) stood at 1 µM.
In the data set with IL-4 (Homo sapiens) (setting [3]), “GGGAGACAAGAAUAAACGCUCAANNNNNNNNNNNNNNNNNNNNNNNNNNNNNNNNNNNNNNNNUUCGACAGGAGGCUCACAACAGGC [IL-4 round 17 pool 2'F]” displayed a Kd of 0.03 µM.
For “GGGAGGACGAUGCGGNNNNNNNNNNNNNNNNNNNNNNNNNNNNNNNNNNNNNNNNCAGACGACUCGCCCGA [IFN-gamma round 17 pool 2'F/NH2]”, the Kd in the data set with IFN-gamma (Homo sapiens) (setting [6]) amounted to 0.115 µM; in the data set with IFN-gamma (Mus musculus) (2'-F all C, 2'-NH2 all U), 0.175 µM.
For “GGGAGACAAGAAUAAACGCUCAANNNNNNNNNNNNNNNNNNNNNNNNNNNNNNNNNNNNNNNNUUCGACAGGAGGCUCACAACAGGC [IL-4 round 17 pool 2'F/NH2]”, in the data set with IL-4 (Homo sapiens) (setting [6]), the Kd was determined as 0.055 µM.
“GGGAGCUCAGAAUAAACGCUCAANNNNNNNNNNNNNNNNNNNNNNNNNNNNNNUUCGACAUGAGGCCCGGAUCCGGC [TNF round 6 C-SELEX pool]” came in with a Kd in the data set with TNF-alpha (Homo sapiens) [1] (C-SELEX final pool) of 0.4 µM.
As to “GGGAGGACGAUGCGGNNNNNNNNNNNNNNNNNNNNNNNNNNNNNNNNNNNNNNNNCAGACGACUCGCCCGA [IFN-gamma round 17 pool 2'NH2]”, the Kd is 0.02 µM with IFN-gamma (Homo sapiens) (2'-NH2 all C and U, round 17 pool); 0.085 µM in the data set with IFN-gamma (Mus musculus) (2'-NH2 all C and U).
In the case of “GGGAGCUCAGAAUAAACGCUCAANNNNNNNNNNNNNNNNNNNNNNNNNNNNNNUUCGACAUGAGGCCCGGAUCCGGC [TNF round 23 A-SELEX pool]”, the figures for the Kd with TNF-beta (Homo sapiens), with TNF-alpha (Mus musculus) and with TNF-alpha (Homo sapiens) [1] (round 23A pool) were more than 1000 µM, more than 1000 µM and 0.7 µM, respectively.
In turn, “GGGAGCUCAGAAUAAACGCUCAANNNNNNNNNNNNNNNNNNNNNNNNNNNNNNUUCGACAUGAGGCCCGGAUCCGGC [TNF random RNA]” registered a Ki with TNF-alpha (Homo sapiens) [2] of more than 1000 µM. Further, in the data set with TNF-alpha (Homo sapiens) [1] (estimated, flat curves up to 10 uM protein), the dissociation constant (Kd) is more than 1000 µM.

The record behind these values is US5972599.
